Data: US20210139608

System: T1, MMP2-cleavable peptide linker CGPLGVRGG within the MAP-Ab conjugate (imuGlue)
T1 sequence: CGPLGVRGG

MMP2 (matrix metalloproteinase-2)
cumulative Ab release profile from MAP-Ab in the presence of MMP2: the imuGlue may release 75% of Ab sprayed for 24 hours in the presence of MMP2
emission spectrum of MAP-Ab with or without MMP2: when MMP2 treatment was carried out, a blue shift was observed in the MAP-Ab emission spectrum
